This note sets out measurements from publication PMC7156492.

This test has as its target tetrameric Y-complex fragment Nup120-Nup145C-Sec13-Nup85 (NPC-II) (Myceliophthora thermophila). In words: mass photometry; mixture of NPC-I and NPC-II (NPC-III) diluted 10-fold from 482 nM immediately before measurement; 10 mM HEPES pH 7.5, 150 mM NaCl, 1 mM DTT, 0.1 mM EDTA; no cross-linker.

Sequence of tetrameric Y-complex fragment Nup120-Nup145C-Sec13-Nup85 (NPC-II) (Myceliophthora thermophila) (main, as listed by the source, chain 1 of 3): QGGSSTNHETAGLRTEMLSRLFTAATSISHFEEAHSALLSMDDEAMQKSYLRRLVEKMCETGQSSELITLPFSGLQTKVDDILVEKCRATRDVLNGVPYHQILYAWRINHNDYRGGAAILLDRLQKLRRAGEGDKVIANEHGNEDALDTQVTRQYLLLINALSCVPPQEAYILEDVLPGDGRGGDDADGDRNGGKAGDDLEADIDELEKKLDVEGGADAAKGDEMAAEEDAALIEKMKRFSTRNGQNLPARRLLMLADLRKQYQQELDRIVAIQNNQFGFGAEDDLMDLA
Sequence of tetrameric Y-complex fragment Nup120-Nup145C-Sec13-Nup85 (NPC-II) (Myceliophthora thermophila) (partner, as listed by the source, chain 2 of 3): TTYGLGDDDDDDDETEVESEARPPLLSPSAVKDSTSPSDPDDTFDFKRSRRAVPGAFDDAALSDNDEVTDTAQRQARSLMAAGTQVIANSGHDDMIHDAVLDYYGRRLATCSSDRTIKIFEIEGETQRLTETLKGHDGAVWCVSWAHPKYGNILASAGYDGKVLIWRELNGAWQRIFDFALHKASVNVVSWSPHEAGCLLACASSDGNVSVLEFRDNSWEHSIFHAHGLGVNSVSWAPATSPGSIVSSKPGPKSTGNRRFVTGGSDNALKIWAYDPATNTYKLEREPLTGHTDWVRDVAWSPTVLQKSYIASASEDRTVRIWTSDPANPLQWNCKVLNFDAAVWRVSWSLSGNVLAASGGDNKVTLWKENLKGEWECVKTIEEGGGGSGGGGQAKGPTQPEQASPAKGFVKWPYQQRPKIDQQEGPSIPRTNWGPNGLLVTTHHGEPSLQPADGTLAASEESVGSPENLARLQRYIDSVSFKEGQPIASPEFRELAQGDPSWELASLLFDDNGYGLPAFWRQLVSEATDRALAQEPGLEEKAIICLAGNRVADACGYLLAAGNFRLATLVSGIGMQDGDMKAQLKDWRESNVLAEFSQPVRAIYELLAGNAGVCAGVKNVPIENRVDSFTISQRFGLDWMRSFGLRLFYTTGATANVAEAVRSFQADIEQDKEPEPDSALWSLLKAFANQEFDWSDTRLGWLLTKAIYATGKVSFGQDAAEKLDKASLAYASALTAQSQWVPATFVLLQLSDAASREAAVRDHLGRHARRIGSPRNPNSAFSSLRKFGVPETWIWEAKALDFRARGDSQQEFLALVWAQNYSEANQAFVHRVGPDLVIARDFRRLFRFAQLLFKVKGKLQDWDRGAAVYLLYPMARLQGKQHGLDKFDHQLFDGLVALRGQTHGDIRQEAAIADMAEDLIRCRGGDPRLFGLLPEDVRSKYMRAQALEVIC
Sequence of tetrameric Y-complex fragment Nup120-Nup145C-Sec13-Nup85 (NPC-II) (Myceliophthora thermophila) (partner, as listed by the source, chain 3 of 3): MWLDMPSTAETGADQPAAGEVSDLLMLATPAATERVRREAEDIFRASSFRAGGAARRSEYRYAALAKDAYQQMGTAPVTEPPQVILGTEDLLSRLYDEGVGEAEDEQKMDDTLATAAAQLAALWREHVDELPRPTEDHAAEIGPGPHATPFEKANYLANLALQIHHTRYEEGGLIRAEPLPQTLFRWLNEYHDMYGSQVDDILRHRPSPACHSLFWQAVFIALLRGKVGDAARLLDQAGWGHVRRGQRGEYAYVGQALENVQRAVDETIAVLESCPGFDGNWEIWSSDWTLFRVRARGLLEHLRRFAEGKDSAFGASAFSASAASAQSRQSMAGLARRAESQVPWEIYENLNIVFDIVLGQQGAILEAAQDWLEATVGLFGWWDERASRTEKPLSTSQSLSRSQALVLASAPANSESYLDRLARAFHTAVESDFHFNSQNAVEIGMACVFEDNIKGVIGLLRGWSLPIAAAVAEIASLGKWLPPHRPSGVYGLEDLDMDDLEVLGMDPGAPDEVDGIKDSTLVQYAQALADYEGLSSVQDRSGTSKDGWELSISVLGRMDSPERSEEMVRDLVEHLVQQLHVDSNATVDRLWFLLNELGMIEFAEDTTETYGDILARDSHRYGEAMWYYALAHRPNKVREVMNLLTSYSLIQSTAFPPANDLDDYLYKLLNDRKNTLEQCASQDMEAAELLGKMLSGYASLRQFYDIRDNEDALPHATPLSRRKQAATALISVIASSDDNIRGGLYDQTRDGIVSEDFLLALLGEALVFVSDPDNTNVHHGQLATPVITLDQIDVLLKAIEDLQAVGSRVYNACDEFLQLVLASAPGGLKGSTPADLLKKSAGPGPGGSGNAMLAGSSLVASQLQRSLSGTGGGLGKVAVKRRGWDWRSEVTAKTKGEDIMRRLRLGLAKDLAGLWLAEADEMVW

Consider “tetrameric Nup82-Nup145N-Nup159-Nsp1 complex (NPC-I)”, for which the stoichiometry N came out at 1.
